Test [1] has as its system murine ATDC5 progenitor cells. Put plainly: Proteoglycan biosynthesis (35S-GAG) in monolayer cultures, maintenance or differentiation media. The test is classed as cell-based. From the text:
FIG. 21. A bar graph of the concentration dependent effects of rhNC4 (batch PBA-1202P) expressed by K. lactis, in the absence (maintenance media, MM) and presence of insulin (10 micrograms/mL) (differentiation media, DM), on the biosynthesis of Proteoglycans (PGs) as determined by the incorporation of radioactively labelled sulfate into the sulfated glycosaminoglycans (^35S-GAG) of PGs after 3 day culture with Murine ATDC5 progenitor cells. The data was expressed as % change relative to control cultures that contained no rhNC4. P<0.05 was statistically significant relative to control cultures.
FIG. 24. A bar graph of the concentration dependent effects of combinations of rhNC4 (batch PBA-1202P) and Pentosan Polysulfate (PPS) on the biosynthesis of 35S-PGs by monolayer cultures of Murine ATDC5 progenitor cells. Data is expressed relative to control (maintenance media, MM) which was taken as 100%.
FIG. 31. A bar graph of the concentration dependent effects of rhNC4 (batch PBA-1202P) expressed by K. lactis, in the absence (maintenance media, MM) and presence of insulin (10 micrograms/mL) (differentiation media, DM), on the biosynthesis of Proteoglycans (PGs) as determined by the incorporation of radioactively labelled sulfate into the sulfated glycosaminoglycans (^35S-GAG) of PGs after 3 day culture with Murine ATDC5 progenitor cells. The data was expressed as % change relative to control cultures that contained no rhNC4. P<0.05 was statistically significant relative to control cultures.
FIG. 32. A bar graph of the concentration dependent effects of Pentosan Polysulfate (PPS), in the presence of insulin (10 micrograms/mL), on the biosynthesis of Proteoglycans PGs) as determined by the incorporation of radioactively labelled sulfate into the sulfated glycosaminoglycans (^35S-GAG) of PGs after 3 day culture with Murine ATDC5 progenitor cells. The data was expressed as ^35S-GAG radioactivity as counts per minute (CPM) and decays per minute (DPM) relative to control cultures that contained no PPS. P<0.05 was statistically significant relative to control cultures.
Murine Progenitor cells (cell lines C3H10T1/2 or ATDC5) purchased from RIKEN Cell Bank (Tsukuba, Japan) or human immunoselected Stro-1+ Progenitor cells (Mesoblast Ltd, Melbourne, Australia) were seeded into 50 mL plastic culture flasks containing 1:1 high glucose DMEM/Ham's F-12 medium (Invitrogen) supplemented with 10% FBS (Sigma) and incubated at 37° C., in 5% CO2. […] The experiments were generally terminated after 48 hours incubation when proteoglycan biosynthesis was determined by measuring the incorporation of ^35SO4 into the glycosaminoglycans (^35S-GAGs) as described below.
The data was expressed as % change relative to control cultures that contained no rhNC4. […]

The next test relates to Murine ATDC5 cell line. Put plainly: Proteoglycan biosynthesis (35S-GAG) in pellet cultures. The test is classed as cell-based. Particulars: pellet cultures, FIG. 22. From the text:
FIG. 12. A bar graph of the concentration dependent effects of Pentosan Polysulfate (PPS), on the biosynthesis of Proteoglycans (PGs) as determined by the incorporation of radioactively labelled sulfate into the sulfated glycosaminoglycans (^35S-GAG) of PGs in 6 day pellet cultures of murine progenitor cells (ADTC-5). *=p<0.05 relative to control.
FIG. 22. A bar graph of the concentration dependent effects of rhNC4 (batch PBA-1202P) expressed by K. lactis, in the absence (maintenance media, MM) and presence of insulin (10 micrograms/mL) (differentiation media, DM), on the biosynthesis of Proteoglycans PGs) in pellet cultures of ATDC5 cells. Data is shown as the % change relative to controls taken to be 100%.
Murine Progenitor cells (cell lines C3H10T1/2 or ATDC5) purchased from RIKEN Cell Bank (Tsukuba, Japan) or human immunoselected Stro-1+ Progenitor cells (Mesoblast Ltd, Melbourne, Australia) were seeded in 2 ml screw-capped sterile centrifuge tubes and the total volume made-up to 1 ml with DMEM-High glucose medium containing 10% FBS. Progenitor cells were then centrifuged at 500 g for 10 min in a swing-out rotor at room temperature. The screw caps were loosened and the tubes placed in an incubator at 37° C., in a 5% CO2/95% air moist atmosphere. The pellets generally formed within 24 hours. Medium was changed daily in the first two days, then once every 2-3 days thereafter. On day 5 the medium was removed and to each tube was added 1 ml with DMEM-High glucose medium containing 10% FBS, 5.0 μCi/ml ^35S-H2SO4 and various concentrations of PPS (0, 0.1, 0.5, 1.0, 2.5, 5.0, 10.0, 20.0, μg/ml) (FIG. 12-15) or rhNC4 (0, 0.1, 0.5, 1.0, 2.0 μg/ml) (FIG. 22). Triplicate cultures were used for all concentration of drugs. The screw caps were loosened and the tubes placed in an incubator at 37° C., in a 5% CO2/95% moist air atmosphere […]. On day 6, 200 μl of stock papain solution [2.5 mg/ml papain, 7.9 mg/ml L-Cystein in papain buffer (0.1 M NaAC, 5 mM EDTA, pH6.0)] was added to each tube. The tubes were tightly capped and incubated at 65° C. for 2 hours. After papain digestion, 4 replicates of 200 μl of papain digested solution were separately transferred to a 96-well micro-titre plate (200 μl/well). The remaining solution was used for the DNA fluorometric assays which were undertaken in triplicate as described above. Biosynthesis of ^35S-GAGs was determined as described for the monolayer cultures and the results expressed as ^35-S-GAGs/μg DNA.
Data is shown as the % of controls taken to be 100%.

For another test, the system named is ATDC5 cell. The test is described as follows: Kinetics of ATDC5 cell growth over 13 days. The test is classed as cell-based, murine. Particulars: rhNC4 (batch PBA-1200P) 5 ug/ml or Insulin 10 ug/ml; 20,000 cells per well at Day 0; FIG. 30. The method, then: FIG. 30. A bar graph of the kinetics of ATDC5 cell growth induced by rhNC4 (batch PBA-1200P) (5 ug/ml) or Insulin (10 ug/ml) relative to control over 13 days. 20,000 cells per well were seeded at Day 0 (Start) with medium changes every 48 hrs. Insulin treated cultures reached confluence on day 6 and PBA-1200P on day 9. Control cultures also reached confluence on day 9 but in contrast to cultures containing insulin or PBA-1200P ceased to undergo replication.

The values below come from patent US9888679B2, “Protection of progenitor cells and regulation of their differentiation” (Proteobioactives Pty Ltd, priority 2007, dated 2018).

“Also recorded” adds a separate entry of the source.

B1: rhNC4: recombinant human non collagenous NC4 domain of the alpha-1 chain of type IX collagen, expressed by K. lactis (protein, listed as Homo sapiens)
chain: AVKRRPRFPVNSNSNGGNELCPKIRIGQDDLPGFDLISQFQVDKAASRRAIQRVVGSATLQVAYKLGNNVDFRIPTRNLYPSGLPEEYSFLTTFRMTGSTLKKNWNIWQIQDSSGKEQVGIKINGQTQSVVFSYKGLDGSLQTAAFSNLSSLFDSQWHKIMIGVERSSATLFVDCNRIESLPIKPRGPIDIDGFAVLGKLADNPQVSVPFELQWMLIHCDPLRPRRETCHELPARITPSQTTDER
Turning to B1, the “rhNC4 concentration of maximum effects on PG synthesis” value in test [1] (maintenance and differentiation media, FIG. 21) amounted to 1 microgram/mL. The PG synthesis entry is given as “stimulated PG synthesis; also recorded: concentration dependent stimulation of PG synthesis” in test [1] (rhNC4, absence (maintenance media) and presence of insulin (differentiation media), 3 day culture, FIG. 21/31); “stimulatory effect” in the test on Murine ATDC5 cell line (rhNC4). In addition, in the test with Murine ATDC5 cell line (maintenance media), the “rhNC4 concentration producing the optimum effect on PG synthesis” value came out at 0.5 micrograms/mL. Further, in the test with ATDC5 cell, the “day on which cultures reached confluence” value worked out at 9 days.
